Laboratory results from EP4628095A1 (Xiamen University, dated 2025).

Legend:
[1] = target: T1, P2-4G-BGTSTIP; experiment: SPR (Biacore 8K), HEV-p239 coupled to CM5 chip (Fig. 12)
T1 construct: also called PA-4G-BGTSTIP; VHH-BGTSTIP

[2] = target: P1-1G-RBD (insect cell expression system); experiment: SPR (Biacore 8K), HEV-p239 coupled to CM5 chip (Fig. 10A)
[3] = target: P2-2C-RBD (insect cell expression system); experiment: as above

Measured: binding result

B1: HEV-p239 protein (other)
chain: IALTLFNLADTLLGGLPTELISSAGGQLFYSRPVVSANGEPTVKLYTSVENAQQDKGIAIPHDIDLGESRVVIQDYDNQHEQDRPTPSPAPSRPFSVLRANDVLWLSLTAAEYDQSTYGSSTGPVYVSDSVTLVNVATGAQAVARSLDWTKVTLDGRPLSTIQQYSKTFFVLPLRGKLSFWEAGTTKAGYPYNYNTTASDQLLVENAAGHRVAISTYTTSLGAGPVSISAVAVLAPHSV
notes: also called HEV-p239 particles; HEV particles
binds: [1] | [2] | [3]
